Reference: paper PMC2834481

Target: squid Munc18-1 (squid)
Experiment: ITC

Substance	Kd [µM]
synaptobrevin(49-96) (from UniProt P63045 49-96) (domain or fragment)	13.3
synaptobrevin(77-96) peptide (from UniProt P63045 77-96)	13.5
